Laboratory results reported in patent US20230329245A1, “COMPOSITIONS AND METHODS OF USE THEREOF” (Curie Co. Inc., priority 2020, published 2023).
Several values for one entry are separate records, joined by “and”; a condition that tells them apart may be missing. Equal entries are not always repeated.

Key:
Format in all cases: cell-based
[1] = system: A. brasiliensis ATCC 16404; assay: MIC determination, A. brasiliensis; settings: RPMI 1640 pH 7.0, 25° C., up to 7 days, duplicate
Method: A variant form of Streptomyces mobaraensis transglutaminase having the amino acid sequence depicted in SEQ ID NO:6 was prepared by literature methods with a hexa-his-tag to aid in purification (Javitt, et al. (2017) BMC Biotechnol. 17:23). The cells were grown in shake flasks, lysed by homogenization, and the Tgase variant (SEQ ID NO:6) was isolated from the cell debris by centrifugation. The resulting semi-purified enzyme (clarified lysate) were compared on an SDS-PAGE gel, by spectroscopy, and activity for concentration of active enzyme. The Tgase variant (SEQ ID NO:6) was further purified by affinity column on a Ni-IMAC resin prior to MIC assay. Tgase activity was measured in the examples herein using a colorimetric hydroxamate activity assay (Folk and Cole (1965) J Biol Chemistry 240(7):2951-2960). The enzyme was diluted to a working stock concentration of 2 mg/mL in CAMHB or RPMI media (bacterial or fungal media). This was then 2-fold serial diluted ten times in the appropriate media in a 96-well master plate to generate 2× starting concentrations for MIC testing. […]
C. albicans MIC 96-well plate was incubated for 37° C. for 24 to 48 hours. […] After incubation, all 96-well plates were examined visually and on a spectrophotometer at absorbance OD650. […]

[2] = system: B. subtilis BGSC 1A1276; assay: Growth reduction of B. subtilis culture (OD600 / BacTiter-Glo)
Method: For MIC determination of bacterial cultures, E. coli ATCC 8739, DH5-alpha, DH10-beta, and B. subtilis BGSC 1A1276 was grown overnight (16-18 hours) in LB broth at 37° C. The following day, the cell density of the saturated cultures was calculated using OD600 and cultures were diluted to 10^4 to 10^6 CFU/mL in sterile LB media to generate the inoculum, and 90 μL of the inoculum was combined with 10 μL of serially diluted Tgase SEQ ID NO:1 at a range of 0.0001-0.01 weight percent in the presence or absence of 0.003% lysozyme (100-fold lower than the effective concentration). Growth curves were measured by OD600 on a BioTek® Synergy Plate Reader. Optionally, the following day, a cell viability assay such as BacTiter-Glo™ (Promega®) following manufacturer's protocols) could be used to assess cell viability. A decrease in OD600 or luminescence indicated a decrease in cell viability. Results are presented as a percent reduction in cell count relative to an untreated culture. All test conditions were performed in triplicate.
Yeast or bacterial starter cultures were grown as described previously. Tgase (SEQ ID NO:6) was added to each culture at 0.001-1 weight percent. The cultures were grown overnight at 30° C.-37° C. and growth curves were measured by a BioTek® Synergy Plate Reader.

[3] = system: A. brasiliensis ATCC 16404; assay: Minimum fungicidal concentration (MFC), A. brasiliensis; settings: no colonies recovered on SDA, duplicate
Method: Minimum fungicidal concentration (MFC) was determined by plating 10 microliters of liquid from each MFC test solution on the appropriate agar media for each test strain. The liquid was allowed to air dry in a biosafety cabinet, then the agar plates were incubated under the appropriate conditions: A. brasiliensis and C. albicans were grown on Sabouraud Dextrose Agar (SDA) plates. A. brasiliensis was grown at 25° C. for 5 to 7 days, while C. albicans was grown at 37° C. for 24 to 48 hours. Colony formation was then assessed. MFC is defined as the lowest concentration of the Tgase (SEQ ID NO:6) in which no colonies were recovered.

[4] = system: P. aeruginosa ATCC 9027; assay: MIC determination, P. aeruginosa; settings: CAMHB pH 7.3, 37° C., 18 to 20 hours, duplicate
Method: (§1) A variant form of Streptomyces mobaraensis transglutaminase having the amino acid sequence depicted in SEQ ID NO:6 was prepared by literature methods with a hexa-his-tag to aid in purification (Javitt, et al. (2017) BMC Biotechnol. 17:23). The cells were grown in shake flasks, lysed by homogenization, and the Tgase variant (SEQ ID NO:6) was isolated from the cell debris by centrifugation. The resulting semi-purified enzyme (clarified lysate) were compared on an SDS-PAGE gel, by spectroscopy, and activity for concentration of active enzyme. The Tgase variant (SEQ ID NO:6) was further purified by affinity column on a Ni-IMAC resin prior to MIC assay. Tgase activity was measured in the examples herein using a colorimetric hydroxamate activity assay (Folk and Cole (1965) J Biol Chemistry 240(7):2951-2960). The enzyme was diluted to a working stock concentration of 2 mg/mL in CAMHB or RPMI media (bacterial or fungal media). This was then 2-fold serial diluted ten times in the appropriate media in a 96-well master plate to generate 2× starting concentrations for MIC testing.
Strains were acquired from the American Type Culture Collection (ATCC) (Manassas, VA) and maintained as −80° C. frozen glycerol stocks: S. aureus ATCC 6538, E. coli ATCC 8739, P. aeruginosa ATCC 9027, C. albicans ATCC 10231, and A. brasiliensis ATCC 16404. B. subtilis BGSC 1A1276 was purchased from the Bacillus Genetic Stock Center (BGSC) (Columbus, OH) and maintained as −80° C. frozen glycerol stock. Cation-adjusted Mueller-Hinton broth (CAMHB) at pH 7.3 was used for testing with bacterial species (unless otherwise noted), while RPMI 1640 media buffered with 0.165 M MOPS at pH 7.0 was used for testing with all fungal species.
For MIC determination, bacterial strains (S. aureus ATCC 6538, E. coli ATCC 8739, P. aeruginosa ATCC 9027) were grown overnight on Tryptic Soy Agar (TSA) plates at 37° C. A few colonies of each strain were collected with a sterile swab and used to make a McFarland 0.5 standard solution (approximately 1×10^8 CFU/mL) in sterile PBS. […]

[5] = system: B. subtilis BGSC 1A1276; assay: MIC determination, B. subtilis; settings: duplicate, listed as Tgase variant (SEQ ID NO: 6)
Method: as §1
Strains were acquired from the American Type Culture Collection (ATCC) (Manassas, VA) and maintained as −80° C. frozen glycerol stocks: S. aureus ATCC 6538, E. coli ATCC 8739, P. aeruginosa ATCC 9027, C. albicans ATCC 10231, and A. brasiliensis ATCC 16404. […]

B1: Tgase (SEQ ID NO: 6): variant Streptomyces mobaraensis transglutaminase (SEQ ID NO:2) with N-terminal Methionine, C-terminal peptide linker and hexa-His-Tag (protein)
chain: MDPDDRVTPPAEPLDRMPDPYRPSYGRAETVVNNYIRKWQQVYSHRDGRKQQMTEEQREWLSYGCVGVTWVNSGQYPTNRLAFASFDEDRFKNELKNGRPRSGETRAEFEGRVAKESFDEEKGFQRAREVASVMNRALENAHDESAYLDNLKKELANGNDALRNEDARSPFYSALRNTPSFKERNGGNHDPSRMKAVIYSKHFWSGQDRSSSADKRKYGDPDAFRPAPGTGLVDMSRDRNIPRSPTSPGEGFVNFDYGWFGAQTEADADKTVWTHGNHYHAPNGSLGAMHVYESKFRNWSEGYSDFDRGAYVITFIPKSWNTAPDKVKQGWPLEHHHHHH
**Q.** B1 was tested. Which MIC [1] did it give?
**A.** Its MIC is 62.5 µg/mL.

**Q.** What about the “Fold improvement in enzyme efficacy” value ([2]; Tgase (SEQ ID NO: 1) alone = 1) of the same molecule?
**A.** Its value is 12.

**Q.** What about the “Percent Growth Reduction” value ([2]; enzyme concentration 80 ug/mL) of the same molecule?
**A.** The value was 99.77%.

**Q.** What about the MFC [3] of the same molecule?
**A.** The MFC was 125 µg/mL.

**Q.** And the MIC [4]?
**A.** The MIC was >1,000 μg/mL.

**Q.** What about the MIC [5] of the same molecule?
**A.** Its MIC is 80 µg/mL and 120 µg/mL.
